How the values were obtained:
[1] = system: CHO-BMP-2 cells; type: cell-based, Chinese hamster
Method: Cell viability was assessed at each media collection using a ViCell cell viability analyzer (Beckman) following manufacturer's instructions.

[2] = system: CHO-hBMP-7 cells; test: ELISA for hBMP-7 in conditioned medium from CHO-hBMP-7 cells incubated with 9DR; type: cell-based, Chinese hamster; conditions: 24 hours, nutrient control
Method: Cell lines expressing the hBMP-7 transgene were prepared as per the methods described in Example 1.
Stable CHO cell lines expressing wild type BMP-7 cDNA were seeded into single wells of 24 well plates and cultured in the presence of increasing concentrations of the furin inhibitor 9DR. The conditioned medium was collected and aliquots were assayed for the presence of […] by ELISA. The amount of proBMP-7 present in the samples was estimated by western blot. Other aliquots of conditioned media were diluted with fresh medium and added to C2C12 cells to test for in vitro osteoinductive biological activity.

[3] = system: C2C12 cells; test: C2C12 alkaline phosphatase assay of rhBMP after PreScission digestion; type: cell-based; conditions: for ALP activity (U/μg protein) mean ± SD: n=4
Source text: Alkaline phosphatase induction in C2C12 cells: The activity of recombinant hBMP-2 protein is quantitated based upon induction of alkaline phosphatase in in vitro cultured C2C12 cells, as has been described (see, e.g., Peel et al. J Craniofacial Surg. 2003; 14:284-291 and Hu et al. Growth Factors 2004; 22:29033).
C2C12 cells (ATCC accession number CRL-1772, Manassas, Va.) are passaged before confluent and resuspended at 0.5×10^5 cells/ml in MEM supplemented with 15% heat-inactivated fetal bovine serum, antibiotics and 50 μg/ml ascorbic acid. One ml of cell suspension is seeded per well of a 24 well tissue culture plate (BD Falcon, Fisher Scientific Cat #08-772-1). An aliquot of test BMP-2 sample is added and the cultures maintained at 37° C. and 5% CO2. Test BMP-2 samples included conditioned media, purified recombinant hBMP-2 isolated from conditioned media by heparin affinity chromatography, and as a positive control a commercially available purified recombinant hBMP-2 (R&D Systems, Minneapolis, USA). Control cultures (cultured in media without added BMP-2 sample) are cultured for 2 to 7 days. Medium is changed every two days.
At harvest cultures are rinsed with Tris buffered saline (20 mM Tris, 137 mM NaCl, pH 7.4) and M-Per lysis buffer (Pierce Biotechnology Inc., Rockford, Ill., catalogue #78501) is added. The cell layer is scraped into Eppendorf tubes and sonicated. The lysate is centrifuged at 5000×g at 5° C. for 10 minutes, and the supernatant assayed for alkaline phosphatase (ALP) by monitoring the hydrolysis of nitrophenol phosphate in alkaline buffer (Sigma-Aldrich, St. Louis Mo., catalog P5899) as described in Peel et al. J Craniofacial Surg. 2003; 14:284-291 or by using the Alkaline Phosphatase detection kit, Fluorescence (Sigma-Aldrich, catalogue #APF) according to manufacturer's instructions. To normalize the ALP activity the cellular protein content in each well is also assayed using the Coomasie (Bradford) Protein Assay (Pierce Biotechnology Inc., catalogue #23200). The normalized ALP activity for each sample is calculated by dividing the ALP activity per well by the protein content per well. An activity score is calculated by dividing the ALP activity for each sample by the mean ALP activity of the control and is compared to the score achieved by the positive BMP control.
Preparation of test materials: PreScission protease was obtained from Amersham Biosciences (GE Healthcare, Buckinghamshire, U.K) and was prepared according to the manufacturer's instructions. Recombinant hBMP-2 and rhBMP-7 (both CHO cell produced) were obtained from R&D Systems. The rhBMP samples were resuspended in 4 mM HCl to a final concentration of 10 μg/ml. Bovine serum albumin (BSA) was not included so that the only substrate for the protease was BMP. The cleavage buffer was prepared (50 mM Tris-HCl, 150 mM NaCl, 1 mM EDTA, pH 7).
Assessment of activity: Samples underwent digestion at room temperature for 6 hours. Reactions were stopped by freezing at −20° C. Digestion samples were diluted in alpha MEM+15% FBS and tested for BMP activity using the C2C12 assay described in Example 1.

## N=C(N)NCCC[C@@H](N)C(=O)N[C@H](CCCNC(=N)N)C(=O)N[C@H](CCCNC(=N)N)C(=O)N[C@H](CCCNC(=N)N)C(=O)N[C@H](CCCNC(=N)N)C(=O)N[C@H](CCCNC(=N)N)C(=O)N[C@H](CCCNC(=N)N)C(=O)N[C@H](CCCNC(=N)N)C(=O)N[C@H](CCCNC(=N)N)C(N)=O [9DR, nona-D-arginine amide]
[1]
  effect on cell viability: did not affect cell viability

## N=C(N)NCCC[C@@H](N)C(=O)O [DR, D arginine]
[2]
  mature hBMP-7 in medium versus medium only: no difference

B1: rhBMP-7: recombinant human BMP-7, CHO cell produced, obtained from R&D Systems (protein)
chain: STGSKQRSQNRSKTPKNQEALRMANVAENSSSDQRQACKKHELYVSFRDLGWQDWIIAPEGYAAYYCEGECAFPLNSYMNATNHAIVQTLVHFINPETVPKPCCAPTQLNAISVLYFDDSSNVILKKYRNMVVRACGCH
[3]; group 2: 20 μl rhBMP (10 μg/ml), no protease, no cleavage buffer (unincubated)
  ALP activity (U/μg protein) mean ± SD: 7.1 ± 0.5 U/μg protein
[3]; group 3: 20 μl rhBMP + 15 μl PreScission protease + 165 μl cleavage buffer, room temperature 6 hours
  ALP activity (U/μg protein) mean ± SD: 2.9 ± 0.2 U/μg protein
[3]; group 4: 20 μl rhBMP + 180 μl cleavage buffer alone, room temperature 6 hours
  ALP activity (U/μg protein) mean ± SD: 4.0 ± 0.3 U/μg protein
[3]; room temperature for 6 hours
  activity after PreScission digestion: remained active
  activity after PreScission digestion compared to control BMP incubated in cleavage buffer alone: No loss of activity
